From PMC4595200, “In vitro analyses of mitochondrial ATP/phosphate carriers from Arabidopsis thaliana revealed unexpected Ca^2+-effects” (BMC Plant Biology, 2015) come the findings set out here.

Substrate in data set [1]: Nc1ncnc2c1ncn2[C@@H]1O[C@H](COP(=O)(O)OP(=O)(O)O)[C@@H](O)[C@H]1O
Description: radiolabelled uptake into proteoliposomes. Format: biochemical, Arabidopsis thaliana. To be noted: ADP import / ATP export (ATP-loaded, 5 mM), no added Ca2+ or Mg2+, pH 7.5, 30 °C, 2.5 min, labelled compound, apparent.

Substrate in data set [2]: Nc1ncnc2c1ncn2[C@@H]1O[C@H](COP(=O)(O)OP(=O)(O)OP(=O)(O)O)[C@@H](O)[C@H]1O
Nature of the data set: radiolabelled uptake into proteoliposomes. Format: biochemical, Arabidopsis thaliana. To be noted: ATP import / Pi export (Pi-loaded, 5 mM), no added Ca2+ or Mg2+ (traces ~9 μM each), pH 7.5, 30 °C, 2.5 min, labelled compound, apparent.

Substrate in data set [3]: Nc1ncnc2c1ncn2[C@@H]1O[C@H](COP(=O)(O)OP(=O)(O)O)[C@@H](O)[C@H]1O
Description: purified protein. The conditions noted are these: ADP import / ATP export (ATP-loaded, 5 mM), no added Ca2+ or Mg2+, pH 7.5, 30 °C, 2.5 min, labelled compound, apparent.

Substrate in data set [4]: Nc1ncnc2c1ncn2[C@@H]1O[C@H](COP(=O)(O)OP(=O)(O)OP(=O)(O)O)[C@@H](O)[C@H]1O
Description: purified protein. To be noted: ATP import / Pi export (Pi-loaded, 5 mM), no added Ca2+ or Mg2+ (traces ~9 μM each), pH 7.5, 30 °C, 2.5 min, labelled compound, apparent.

B1: AtAPC3 (Arabidopsis thaliana) (protein)
chain: MESSKPKNRNPMKKPVSITMEHVLLALRETMDEREIRIRSLFDFFDNSNLGFLDYAQIEKGLASLQIPPEYKYARDLFRVCDANRDGRVDYQEFRRYIDAKELELYRIFQAIDVEHNGCILPEELWEALVKAGIEIDDEELARFVEHVDKDNNGTITFEEWRDFLLLYPHEATLENIYHHWERVCLIDIGEQAVIPDGISKHVKRSRLLLAGGLAGAVSRTATAPLDRLKVVLQVQRAHAGVLPTIKKIWREDKLMGFFRGNGLNVMKVAPESAIKFCAYEMLKPMIGGEDGDIGTSGRLMAGGMAGALAQTAIYPMDLVKTRLQTCVSEGGKAPKLWKLTKDIWVREGPRAFYKGLFPSLLGIVPYAGIDLAAYETLKDLSRTYILQDTEPGPLIQLSCGMTSGALGASCVYPLQVVRTRMQADSSKTTMKQEFMNTMKGEGLRGFYRGLLPNLLKVVPAASITYIVYEAMKKNMALD
For B1, the results for the Km in data set [1] and in data set [2] were 72 (±5) μM and 113 (±17) μM, respectively. Further, the values for the Vmax in data set [1] and in data set [2] were 770 (±90) nmol mg protein^-1 h^-1 and 282 (±20) nmol mg protein^-1 h^-1, respectively.

B2: AtAPC1 (Arabidopsis thaliana) (protein)
chain: MEAEKSKQNPGKKPVEATMEHVLVALRETKEKREIRIQKLFEFFDNSKLGFLDDTQIEKGLSSLSIPPKYRYASDFLKVCDSNRDGRVDYQEFRRYMDAKELELYKIFQAIDIEHNGDICPAELWEALDKAGIKIKDEELASFMEHVDKDNNGIITFEEWRDFLLLNPHEATIENIYHHWERVCLIDIGEQAVIPDGISAHAQRSKLLLAGGIAGAVSRTATAPLDRLKVALQVQRTNLGVVPTIKKIWREDKLLGFFRGNGLNVAKVAPESAIKFAAYEMLKPIIGGADGDIGTSGRLLAGGLAGAVAQTAIYPMDLVKTRLQTFVSEVGTPKLWKLTKDIWIQEGPRAFYRGLCPSLIGIIPYAGIDLAAYETLKDLSRAHFLHDTAEPGPLIQLGCGMTSGALGASCVYPLQVIRTRMQADSSKTSMGQEFLKTLRGEGLKGFYRGIFPNFFKVIPSASISYLVYEAMKKNLALD
For B2, in “purified protein [3]”, the Km was 180 (±15) μM and the Vmax is 2078 (±315) nmol mg protein^-1 h^-1. Besides, in “purified protein [4]”, the Km is 68 (6) μM and the Vmax is reported as 201(±14) nmol mg protein^-1 h^-1.

B3: AtAPC2 (Arabidopsis thaliana) (protein)
chain: MEATKSSKQNCCNPVKKPGPVSIDHVLLALRETREERDLRIRSLFSFFDSENVGYLDCAQIEKGLCALQIPSGYKYAKELFRVCDANRDGRVDYHEFRRYMDDKELELYRIFQAIDVEHNGCISPEGLWDSLVKAGIEIKDEELARFVEHVDKDNDGIIMFEEWRDFLLLYPHEATIENIYHHWERVCLVDIGEQAVIPEGISKHIKRSNYFIAGGIAGAASRTATAPLDRLKVLLQIQKTDARIREAIKLIWKQGGVRGFFRGNGLNIVKVAPESAIKFYAYELFKNAIGENMGEDKADIGTTVRLFAGGMAGAVAQASIYPLDLVKTRLQTYTSQAGVAVPRLGTLTKDILVHEGPRAFYKGLFPSLLGIIPYAGIDLAAYETLKDLSRTYILQDAEPGPLVQLGCGTISGALGATCVYPLQVVRTRMQAERARTSMSGVFRRTISEEGYRALYKGLLPNLLKVVPAASITYMVYEAMKKSLELD
In the case of B3, in data set [1], the Km is 374 (±40) μM and the Vmax was 778 (±82) nmol mg protein^-1 h^-1. Further, in data set [2], the Km is reported as 95 (±12) μM and the Vmax is given as 212 (±24) nmol mg protein^-1 h^-1.
